B1: CBPI1: novel Gal-3 N-terminal truncation protein, identical in sequence to native Gal-3 amino acids 109-250 (protein)
chain: APAGPLIVPYNLPLPGGVVPRMLITILGTVKPNANRIALDFQRGNDVAFHFNPRFNENNRRVIVCNTKLDNNWGREERQSVFPFESGKPFKIQVLVEPDHFKVAVNDAHLLQYNHRVKKLNEISKLGISGDIDLTSASYTMI
B2: CBPI2: novel Gal-3 N-terminal truncation protein, deletes amino acids 1-112, substitutions P113A, L114V, Y118N, and T248N (protein)
chain: AVIVPNNLPLPGGVVPRMLITILGTVKPNANRIALDFQRGNDVAFHFNPRFNENNRRVIVCNTKLDNNWGREERQSVFPFESGKPFKIQVLVEPDHFKVAVNDAHLLQYNHRVKKLNEISKLGISGDIDLTSASYNMI

Experiments:
Format in all cases: cell-based, human
[1] = system: ovarian cancer cell line SKOV3; test: Detection of apoptosis (Annexin-V FITC / propidium iodide flow cytometry) in SKOV3; details: for apoptotic rate of SKOV3 cells: 20 μg/mL 48 hours, combined with Paclitaxel (Pax) 100 nM for the last 24 hours, compared with Paclitaxel alone
Protocol: (§1) The human multiple myeloma cell line U266, ovarian cancer cell line SKOV3, and acute monocytic leukemia cell line THP1 were cultured in RPMI 1640 with 10% FBS. The breast cancer cell line MCF7 was cultured in Dulbecco's modified Eagle's medium (DMEM) with 10% FBS. Drugs were purchased from Merck Millipore and used at the following concentrations: Bortezomib (Bor) 5 nM; Cytarabine (Ara-c) 3.87 μM; Rapamycin (Rapa) 100 nM; Paclitaxel (Pax) 100 nM.
Cells were seeded in 48-well at the same concentrations for the MTT assay. The cells were treated with CBPI1 or CBPI2 at 20 μg/mL for 48 hours. For the last 24 hours, the appropriate drugs were added. After 48 hours, the cells were washed with cold 1×PBS, resuspended in “Binding buffer 1×” (i.e., HEPES 0.01M; NaCl 0.14M; and CaCl2 2.5 mM) and incubated for 15 minutes with Annexin-V FITC (BD Biosciences)+Propidium Iodide (2.5 μg/mL final; Sigma-Aldrich) in the dark. Finally, 400 μL of Binding Buffer 1× were added to the tube and samples were processed and analyzed using the BD FACSVerse™ System (BD Biosciences).
(§2) Data are represented as means±SD from at least three (3) independent experiments. ***^=P<0.001; **^=P<0.01; *^=P<0.05.
FIG. 6—After the indicated treatments, the cells were analyzed for apoptosis by flow-cytometry. Plots represent the relative of fluorescence intensities in the green (FL1, horizontal axis) and red (FL2, vertical axis) channels. The apoptosis detector, Annexin-V, is linked to a green fluorescent molecule (FITC), and produces a fluorescent signal in the FL1 channel. Cells in late apoptosis are unable to pump propidium iodide (PI) out of the cytoplasm, and are therefore red fluorescent. Red fluorescence is thus picked up by the flow-cytometer in the FL2 channel. Each dot represents a fluorescent signal (cell), detected by the flow-cytometer. Each dot-plot is divided into 4 quadrants. From bottom-left and proceeding counter-clockwise, these are Q1, Q2, Q3, and Q4. […]

[2] = system: ovarian cancer cell line SKOV3; test: MTT assay in SKOV3; details: for combined effect with Pax compared to Paclitaxel alone by MTT assay: 20 μg/mL 48 hours plus Paclitaxel 100 nM for the last 24 hours; for viability of metabolically-active cells (MTT): protein alone, 20 μg/mL, 48 hours, compared to the control cells
Protocol: as §1
(§3) Cells were seeded in 96-well plates, at a volume of 100 μL cell suspension/well, in quadruplicate. SKOV3 and MCF7 cells were seeded at a density of 100,000 cells/mL. THP1 cells were seeded at a density of at 200,000 cells/mL; whereas, U266 cells were seeded at a density of 300,000 cells/mL. Cells were then treated with CBPI1 or CBPI2 at 20 μg/mL for 48 hours. For the last 24 hours, the appropriate drugs were added. Cell viability was subsequently assayed after 48 hours of incubation with 0.6 mg/mL MTT ((3-(4,5-dimethylthiazolyl-2)-2,5-diphenyltetrazolium bromide; Sigma-Aldrich) for 4 hours. Formazan crystals were dissolved in […] 0.01N HCL/isopropanol. Specific absorbance was measured at 570 nm with subtraction of background at 690 nm.
as §2

[3] = system: multiple myeloma cell line U266; test: MTT assay in U266; details: protein alone, 20 μg/mL, 48 hours
Protocol: as §1, §3, §2

[4] = system: acute monocytic leukemia cell line THP1; test: Detection of apoptosis (Annexin-V FITC / propidium iodide flow cytometry) in THP1; details: 20 μg/mL 48 hours, in combination with Ara-C 3.87 μM for the last 24 hours; compared to the control cells
Protocol: as §1
(§4) Cells were seeded in 48-well at the same concentrations for the MTT assay. The cells were treated with CBPI1 or CBPI2 at 20 μg/mL for 48 hours. For the last 24 hours, the appropriate drugs were added. […] Finally, 400 μL of Binding Buffer 1× were added to the tube and samples were processed and analyzed using the BD FACSVerse™ System (BD Biosciences). […]
(§5) FIG. 6—After the indicated treatments, the cells were analyzed for apoptosis by flow-cytometry. Plots represent the relative of fluorescence intensities in the green (FL1, horizontal axis) and red (FL2, vertical axis) channels. […] Red fluorescence is thus picked up by the flow-cytometer in the FL2 channel. Each dot represents a fluorescent signal (cell), detected by the flow-cytometer. […]

[5] = system: multiple myeloma cell line U266; test: Detection of apoptosis (Annexin-V FITC / propidium iodide flow cytometry) in U266; details: 20 μg/mL 48 hours, combined with Bortezomib (Bor) 5 nM for the last 24 hours; compared with Bor alone
Protocol: as §1, §4, §5

[6] = system: breast cancer cell line MCF7; test: Detection of apoptosis (Annexin-V FITC / propidium iodide flow cytometry) in MCF7; details: protein alone, 20 μg/mL, 48 hours; compared to the control cells
Protocol: as §1, §4, §5

[7] = system: breast cancer cell line MCF7; test: MTT assay in MCF7; details: protein alone, 20 μg/mL, 48 hours
Protocol: as §1, §3, §2

[8] = system: acute monocytic leukemia cell line THP1; test: MTT assay in THP1; details: protein alone, 20 μg/mL, 48 hours
Protocol: as §1, §3, §2

Row | Molecule | apoptotic rate of SKOV3 cells [1] | combined effect with Pax compared to Paclitaxel alone by MTT assay [2] | viability of metabolically-active cells (MTT) [2] | viability of metabolically-active cells (MTT) [3] | apoptotic rate of THP1 cells [4] | apoptosis in ovarian cancer cells ([1]; protein alone, 20 μg/mL, 48 hours, SKOV3) | U266 cells apoptosis rate [5] | MCF7 cells apoptotic rate [6] | viability of metabolically-active cells (MTT) [7] | viability of metabolically-active cells (MTT) [8]
1 | B1 | significantly increase | not evident | significantly decrease | significantly decrease | significantly increase |  |  |  |  | 
2 | B2 | significantly increase | not evident | significantly decrease | significantly decrease | significantly increase | effective in causing apoptosis | significantly increase | significantly increases | significantly decreases | significantly decreases
